What was measured:
[1] = target: T1, EVNFAVEF (SEQ ID NO: 261)
T1 chain: EVNFAVEF

[2] = target: T2, P1′ peptide library component with P1′=Gly
T2 chain: EVNLGAEF

[3] = target: T3, P1′ peptide library component with P1′=Pro
T3 chain: EVNLPAEF

[4] = target: T4, EVNLAAEF (SEQ ID NO: 258)
T4 chain: EVNLAAEF

[5] = target: T5, P1′ peptide library component with P1′=Glu
T5 chain: EVNLEAEF

[6] = target: T6, EVNFEAEF (SEQ ID NO: 260)
T6 chain: EVNFEAEF

[7] = target: T7, EVNLDAEF, Swedish mutant APP 8-mer peptide (SEQ ID NO: 257)
T7 chain: EVNLDAEF

[8] = target: T8, EVNFAAEF (SEQ ID NO: 259)
T8 chain: EVNFAAEF

[9] = target: T9, EVNFEVEF (SEQ ID NO: 262)
T9 chain: EVNFEVEF

B1: β-secretase (protein)
chain: ETDEEPEEPGRRGSFVEMVDNLRGKSGQGYYVEMTVGSPPQTLNILVDTGSSNFAVGAAPHPFLHRYYQRQLSSTYRDLRKGVYVPYTQGKWEGELGTDLVSIPHGPNVTVRANIAAITESDKFFINGSNWEGILGLAYAEIARPDDSLEPFFDSLVKQTHVPNLFSLQLCGAGFPLNQSEVLASVGGSMIIGGIDHSLYTGSLWYTPIRREWYYEVIIVRVEINGQDLKMDCKEYNYDKSIVDSGTTNLRLPKKVFEAAVKSIKAASSTEKFPDGFWLGEQLVCWQAGTTPWNIFPVISLYLMGEVTNQSFRITILPQQYLRPVEDVATSQDDCYKFAISQSSTGTVMGAVIMEGFYVVFDRARKRIGFAVSACHVHDEFRTAAVEGPFVTLDMEDCGYNIPQTDESTLMTIAY
Relative rates of hydrolysis (relative to SEQ ID NO: 257) [1]: 30 | depletion of full length peptide substrate (LC/MS) [2]: two peptides that were not cleaved by β-secretase (P1′=Gly and P1′=Pro) | depletion of full length peptide substrate (LC/MS) [3]: two peptides that were not cleaved by β-secretase (P1′=Gly and P1′=Pro) | Relative rates of hydrolysis (relative to SEQ ID NO: 257) [4]: 10 | depletion of full length peptide substrate (LC/MS) [4]: most rapidly hydrolyzed by β-secretase (P1′=Glu and P1′=Ala) | formation of C-terminal cleavage products (LC/MS) [4]: more rapid and comparable rates of formation of the products represented by P1′=Ala and P1′=Glu | depletion of full length peptide substrate (LC/MS) [5]: most rapidly hydrolyzed by β-secretase (P1′=Glu and P1′=Ala) | formation of C-terminal cleavage products (LC/MS) [5]: more rapid and comparable rates of formation of the products represented by P1′=Ala and P1′=Glu | Relative rates of hydrolysis (relative to SEQ ID NO: 257) [6]: 17 | Relative rates of hydrolysis (relative to SEQ ID NO: 257) [7]: 1 | depletion of full length peptide substrate (LC/MS) [7]: one intermediate sequence (P1′=Asp-the residue normally present in Swedish mutant APP) | formation of C-terminal cleavage products (LC/MS) [7]: the P1′=Asp product shows formation consistent with this residue being less conducive to β-secretase hydrolysis than either Glu or Ala | Relative rates of hydrolysis (relative to SEQ ID NO: 257) [8]: 17 | Relative rates of hydrolysis (relative to SEQ ID NO: 257) [9]: 60

— patent US20070184488
